Laboratory results published in the supplement of paper PMC11780869.

Test system: Bacillus subtilis
Assay: cleaved RNA product abundance (RNA/gDNA barcode ratio) relative to median wild-type variant (ratio to wild type); higher = more accumulation of the downstream cleavage product
How it was run: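 Reporter mRNAs based on truncated aprE or tetM carried barcoded, mutagenized RNase Y cleavage-site windows built from oligos with a 9% error rate and were integrated into the B. subtilis chromosome. Cultures grew in LB at 37°C from OD600 0.0003 to 0.3. Cleaved RNA was gel-selected, reverse transcribed and barcode-sequenced together with genomic DNA barcodes, and UMIs were collapsed. Cleaved product abundance is the per-construct ratio of RNA to gDNA barcodes, scaled to the median of constructs carrying the unmutated site.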

[1] = experiment (reporter, strain, medium): exp 2b: truncated aprE reporter, strain BJT200, cleavage site: cggR-gapA (positions -7 to +36 mutated)
[2] = experiment (reporter, strain, medium): exp 4a: truncated aprE reporter, strain BJT201 with 2% xylose (RNase J1 expressed), cleavage site: cggR-gapA (positions -7 to +36 mutated)
[3] = experiment (reporter, strain, medium): exp 6: tetM reporter, strain 168, cleavage site: cggR-gapA (positions -7 to +36 mutated)
[4] = experiment (reporter, strain, medium): exp 8a: truncated aprE reporter, strain BJT201 with 2% xylose (RNase J1 expressed), cleavage site: glnRA (positions -5 to +31 mutated)

Row | Sequence | cleaved RNA product abundance [1] | cleaved RNA product abundance [2] | cleaved RNA product abundance [4] | other results
1 | ACAGACGAAGGAGCCGCAAAGAAGTTATTAAGGGATGAATAATGCCTCAATATAAATATCTCTCACTTATTTAAA | 0.129 | 0.17 |  | cleaved RNA product abundance [3]: 0.128
2 | ACAGACGAAGGAGCCGCAAAGAAGTTATAAAGGGATGAATAATCCCTCAATATAAATATTTCTCACTTATTTAAA |  | 0.51 |  | 
3 | CGACATGTCCCGCTTCTTTCATTAATCCGTTATCAACTGGTTTGCTATATACATTTACCTTTTAAGAGGAGGAAT |  |  | 0.204 | 
4 | ACAGACGAAGGAGCCGCAAAGAAGTTATTAAGGTATAAATAATCCCTCAATATAAATGTCTCTCACTTATTTAAA |  | 0.11 |  | 
5 | CGACATGTCCCGCTTCTTTCATTAATCCGTTGGCAACTGTTTTGCTATATACATTTACTTTTTAAGAGGAGGAAT |  |  | 0.61 | 
6 | ACAGACGAAGGAGCCGCAAAGAAGTTATTAAGGGATAAATAATCCCACAATATAAATATCTCTCACTTATTTAAA | 0.253 | 0.356 |  | 
7 | ACAGACGAAGGAGCCGCAAAGAAGTTATTAAGGGAAGAATAATACCTCAATATAAATATCTCTCACTTATTTAAA | 0.101 | 0.156 |  | 
8 | ACAGACGAAGGAGCCGCAAAGAAGTTATTAAGGGTTGATTAATCCCTCAATATAAATATCTCTCACTTATTTAAA | 0.287 | 0.409 |  | 
9 | CGACATGTCCCGCTTCTTTCATTAAGCCGTTATCAACTGTTTTGCTATATACATTTACCTTTTAAGAGGAGGAAT |  |  | 0.21 | 
10 | ACAGACGAAGGAGCCGCAAAGAAGTCATTAAGGGATGAATAATCCCTCAAAATAAATATCTCTCACTTATTTAAA |  | 0.203 |  | 
11 | CGACATGTCCCGCTTCTTTCATTAATCCGTTAGCAAATGTTTTGCTATATACAATTACCTTTTAAGAGGAGGAAT |  |  | 1.76 | 
12 | ACAGACGAAGGAGCCGCAAAGAAGTTATAAAGGGATGAATAATGCCTCAATATAAATATCTCTCACTTATTTAAA | 0.113 |  |  | 
13 | CGACATGTCCCGCTTCTTTCATTAATCTGTTAGCAACTGTTTAGCTATATACATTTACCTTTTAAGAGGAGGAAT |  |  | 0.727 | 
14 | ACAGACGAAGGAGCCGCAAAGAAGATATTAAGGGATGAATAATCCGTCAATATAAATATCTCTCACTTATTTAAA |  | 0.239 |  | 
15 | CGACATGTCCCGCTTCTTTCATTAATCCGTTATCAACTGTTTTGCTATACACATTTACCTTTTAAGAGGAGGAAT |  |  | 0.27 | 
16 | CGACATGTCCCGCTTCTTTCATTAATCGGTTAGAAACTGTTTTGCTATATACATTTACCTTTTAAGAGGAGGAAT |  |  | 0.222 | 
17 | ACAGACGAAGGAGCCGCAAAGAAGTTATTAAGGGAAGAATAATCCCTGAATATAAATATCTCTCACTTATTTAAA |  | 0.374 |  | 
18 | ACAGACGAAGGAGCCGCAAAGAAGTTATTAAGGGATGAATAATTCCTCAAAATAAATATCTCTCACTTATTTAAA |  | 0.331 |  | 
19 | CGACATGTCCCGCTTCTTTCATTAATCCGTTAGCAACTTTTTTGCTATATACATTTAACTTTTAAGAGGAGGAAT |  |  | 1.81 | 
20 | ACAGACGAAGGAGCCGCAAAGAAGTTATTAAGGTATGTATAATCCCTCAATATAAATATCTCTCACTTATTTAAA | 0.108 | 0.127 |  | 

Row | Sequence | cleaved RNA product abundance [1] | cleaved RNA product abundance [2] | cleaved RNA product abundance [4] | other results
21 | ACAGACGAAGGAGCCGCAAATAAGTTATTAAGGGATGAATAATCCCTTAATATAAATATCTCTCACTTATTTAAA |  | 0.452 |  | 
22 | CGACATGTCCCGCTTCTTTCATTAATACGTTAGTAACTGTTTTGCTAAATACATTTACCTTTTAAGAGGAGGAAT |  |  | 0.285 | 
23 | ACAGACGAAGGAGCCGCAAAGAAGTTATTAAGGGATGAATAACCCTTCAATATAAATATCTCTCACTTATTTAAA |  | 0.346 |  | 
24 | CGACATGTCCCGCTTCTTTCATTAATCTGTTAGCAACTGTTTTGCTATATACATTTACCATTTAAGAGGAGGAAT |  |  | 2.04 | 
25 | ACAGACGAAGGAGCCGCAAAGGAGTTATTAAGGAATGAATAATCCCTCAATATAAATATCTCTCACTTATTTAAA |  | 0.144 |  | 
26 | ACAGACGAAGGAGCCGCAAAGAAGTTATTAATGGATGAATAACCCCTCAATATAAATATCTCTCACTTATTTAAA | 0.0893 | 0.0925 |  | 
27 | CGACATGTCCCGCTTCTTTCATTAATCCTTTAGCAACTGTTTTGCTATATATATTTACCTTTTAAGAGGAGGAAT |  |  | 0.909 | 
28 | ACAGACGAAGGAGCCGCAAAGAAGTTATTAAGGGATGAATAATCCTTCAATTTAAATATCTCTCACTTATTTAAA | 0.144 | 0.138 |  | 
29 | ACAGACGAAGGAGCCGCAAAGAAAGTTATTAAGGGATGAATAATCCCTCAATATAAATATCTCTCACTTATTTAA |  | 0.775 |  | 
30 | ACAGACGAAGGAGCCGCAAAGAAGTTATTAAGTGATGAATAATCCCTCAATATATATATCTCTCACTTATTTAAA | 0.115 | 0.107 |  | 
31 | ACAGACGAAGGAGCCGCAAAGAAGCTATTAAGGGATGTATAATCCCTCAATATAAATATCTCTCACTTATTTAAA |  | 0.576 |  | 
32 | ACAGACGAAGGAGCCGCAAAGAGGTTATTTAGGGATGAATAATCCCTCAATATAAATATCTCTCACTTATTTAAA |  | 0.527 |  | 
33 | ACAGACGAAGGAGCCGCAAAGAAGTTAATAAGGAATGAATAATCCCTCAATATAAATATCTCTCACTTATTTAAA | 0.103 | 0.165 |  | 
34 | ACAGACGAAGGAGCCGCAAAGAAGTTATTAAGGGATTAATAATCCCTCACTATAAATATCTCTCACTTATTTAAA | 0.233 | 0.26 |  | 
35 | ACAGACGAAGGAGCCGCAAAGAAGTTATTAATGGATGCATAATCCCTCAATATAAATATCTCTCACTTATTTAAA | 0.133 | 0.169 |  | 
36 | CGACATGTCCCGCTTCTTTCATTAATCCGTTAACAACTGTTTTGCTATATACACTTACCTTTTAAGAGGAGGAAT |  |  | 0.329 | 
37 | ACAGACGAAGGAGCCGCAAAGAAGTTATTAAGAGATGAATAATCCCACAATATAAATATCTCTCACTTATTTAAA | 0.0945 | 0.1 |  | 
38 | CGACATGTCCCGCTTCTTTCATTAATCCGTTAGAAACTGTTTTGGTATATACATTTACCTTTTAAGAGGAGGAAT |  |  | 0.104 | 
39 | CGACATGTCCCGCTTCTTTCATTAATCCGTTAGTAAGTGTTTTGCTATATACATTTACCTTTTAAGAGGAGGAAT |  |  | 0.265 | 
40 | ACAGACGAAGGAGCCGCAAAGAAGTTATTAAGCGATGAATAATCCCTCAATATTAATATCTCTCACTTATTTAAA |  | 0.151 |  | 

Row | Sequence | cleaved RNA product abundance [1] | cleaved RNA product abundance [2] | cleaved RNA product abundance [4] | other results
41 | CGACATGTCCCGCTTCTTTCATTAATCCGTTAGCAACTGTTTTGCTAAAGACATTTACCTTTTAAGAGGAGGAAT |  |  | 0.0969 | 
42 | CGACATGTCCCGCTTCTTTCATTAATCCGTTAGCAACTGTTTTACTATATACATGTACCTTTTAAGAGGAGGAAT |  |  | 0.471 | 
43 | ACAGACGAAGGAGCCGCAAAGAAGTTATTCAGGGATGAATAATCCATCAATATAAATATCTCTCACTTATTTAAA |  | 0.319 |  | 
44 | ACAGACGAAGGAGCCGCAAAGAAGTTACTAAGGGATGAATAATTCCTCAATATAAATATCTCTCACTTATTTAAA |  | 0.24 |  | 
45 | CGACATGTCCCGCTTCTTTCATTAATCCGTTAGCAACTGTTTTGCTATATACATTTATCTTTTAAGAGGAGGAAT |  |  | 1.27 | 
46 | ACAGACGAAGGAGCCGCAAAGAAGTAATTAATGGATGAATAATCCCTCAATATAAATATCTCTCACTTATTTAAA | 0.105 | 0.121 |  | cleaved RNA product abundance [3]: 0.0999
47 | CGACATGTCCCGCTTCTTTCATTAATCCGTTTGCAACTGTTTTGCTAAATACATTTACCTTTTAAGAGGAGGAAT |  |  | 0.289 | 
48 | ACAGACGAAGGAGCCGCGAAGAAGTTATTAATGGATGAATAATCCCTCAATATAAATATCTCTCACTTATTTAAA |  | 0.214 |  | 
49 | CGACATGTCCCGCTTCTTTCATTACTCCGTTAGCAACTGTTTTGCTATATACATTTATCTTTTAAGAGGAGGAAT |  |  | 1.8 | 
50 | ACAGACGAAGGAGCCACAAAGAAGTTATTAAGGGATGAATAATCCCTCAATATAAATATCTCTCACTTATTTAAA |  |  |  | cleaved RNA product abundance [3]: 1.09
51 | ACAGACGAAGGAGCCGCAAAGAAGTTATTAAGTGATGAATAATCCCTCAATAAAAATATCTCTCACTTATTTAAA |  | 0.0655 |  | cleaved RNA product abundance [3]: 0.11
52 | ACAGACGAAGGAGCCGCAAAAAAGTGATTAAGGGATGAATAATCCCTCAATATAAATATCTCTCACTTATTTAAA | 0.276 | 0.583 |  | 
53 | ACAGACGAAGGAGCCGCAAAGAAGTTATTAAACGATGAATAATCTCTCAATATAAATATCTCTCACTTATTTAAA | 0.109 | 0.179 |  | 
54 | ACAGACGAAGGAGCCGCAAAAAAGTTATTAAGGGATGAATAATCCTTCAATATAAATATCTCTCACTTATTTAAA | 0.395 | 0.678 |  | 
55 | ACAGACGAAGGAGCCGCAAAGAAGTTATTAAGGGAGGAATAATTCCTCAATATAAATATCTCTCACTTATTTAAA |  | 0.0856 |  | 
56 | ACAGACGAAGGAGCCGCAAAGAAGTTATTAATGGATAAATAATCCCTCAATATAAATATCTCTCACTTATTTAAA | 0.102 | 0.116 |  | 
57 | CGACATGTCCCGCTTCTTTCATTAATTCGTTAGCAAATGTTTTGCAATATACATTTACCTTTTAAGAGGAGGAAT |  |  | 0.563 | 
58 | ACAGACGAAGGAGCCGCAAAGAAGTAATTAAAGGATGAATAATCCCTCAATATAAATATCTCTCACTTATTTAAA | 0.101 | 0.105 |  | 
59 | CGACATGTCCCGCTTCTTTCATTAATCCGTTATCAACTGCTTTGCTATATACATTTACCTTTTAAGAGGAGGAAT |  |  | 0.114 | 
